# Measurements as given in patent US20240294622A1 (SUZHOU TRANSCENTA THERAPEUTICS, published 2024).
# T1: Mouse Gremlin-His (R&D) (mouse, UniProt O70326 25-184)
# T1 construct: Lys25-Asp184 with 10xHis, R&D 956-GR; also called mouse gremlin (R&D); mGREM1
# T1 sequence: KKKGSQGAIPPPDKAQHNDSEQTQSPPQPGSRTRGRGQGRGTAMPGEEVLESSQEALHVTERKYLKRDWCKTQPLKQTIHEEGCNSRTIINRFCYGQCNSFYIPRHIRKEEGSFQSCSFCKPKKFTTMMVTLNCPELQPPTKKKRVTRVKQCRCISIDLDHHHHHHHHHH
# T2: XM5-Fc (human (hGREM1 with residues 123-143 …))
# T2 construct: also called gremlin 1-DAN fusion protein
# T2 chain: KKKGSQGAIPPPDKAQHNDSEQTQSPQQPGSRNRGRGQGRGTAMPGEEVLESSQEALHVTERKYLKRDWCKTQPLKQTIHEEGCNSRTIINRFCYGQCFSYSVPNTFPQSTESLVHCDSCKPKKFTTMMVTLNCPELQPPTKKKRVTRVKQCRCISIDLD
# T3: HGREM1-His (ACRO) (human, UniProt O60565 25-184)
# T3 construct: Lys25-Asp184 of NP_037504 with C-terminal polyhistidine tag (ACRO GR1-H52H3); they are put here; also called hGREM1 (ACRO); human gremlin (ACRO)
# T3 sequence: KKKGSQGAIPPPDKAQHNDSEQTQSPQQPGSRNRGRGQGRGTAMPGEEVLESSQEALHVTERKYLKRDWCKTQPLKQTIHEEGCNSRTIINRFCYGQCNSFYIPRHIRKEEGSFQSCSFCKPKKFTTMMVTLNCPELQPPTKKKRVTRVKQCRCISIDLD
# How the values were obtained:
# Mouse Gremlin-His (R&D) [1] = target: T1, Mouse Gremlin-His (R&D); assay: ELISA on coated Mouse Gremlin-his, anti-mouse IgG-HRP
# Description: (§1) Clear polystyrene plates (BEAVER) were coated with 100 μl/well of a […] hGREM1 (ACRO) and mouse gremlin (R&D) in high pH coating buffer overnight at 4° C. Then the plates were washed once on an automatic plate washer using PBS+0.1% Tween 20 (Sigma). 100 μl of block solution consisting of PBS+1% BSA+1% normal goat serum+0.5% Tween 20 (Sigma) was added to each well and incubated at room temperature for 2 hours. Then 100 μl of antibodies in antibody dilution buffer containing PBS+1% BSA+1% normal goat serum+0.01% Tween 20 starting from 2 μg/ml and then serial dilutions were added to each well of the plate and incubated for 1 hours at room temperature. Afterward the plates were washed three times with 200 μl of PBS+0.1% Tween20 followed by adding 100 μl/well 1:10000 Goat anti mouse IgG-HRP (abcam), and incubate for 1 hour at room temperature. They were then washed 3× with PBS+0.1% Tween20. Finally, 100 µl/well of TMB (Pierce) was added to each well and after several minutes add 50 μl of stop solution to each well. The plates were read on a Multiscan FC microplate reader (Thermo Scientific) at […].
# XM5-Fc = target: T2, XM5-Fc; assay: ELISA on coated XM5-Fc (column XM5)
# Description: Binding affinities to hGREM1 and XM5 were also compared. Briefly, XM5-Fc or Gremlin-his […] was coated. 100 μl of block solution consisting of PBS+1% BSA+1% normal goat serum+0.5% Tween 20 (Sigma) was added to each well and incubated at room temperature for 2 hours. 4-fold serial antibody dilution from 2 μg/ml were added. Afterward the plates were washed three times with 200 ul of PBS+0.1% Tween20 followed by adding 100 μl/well 1:10000 Goat anti mouse IgG-HRP (abeam), and incubate for 1 hour at room temperature. They were then washed 3× with PBS+0.1% Tween20. Finally, 100 μl/well of TMB (InnoReagents) was added to each well and after 2 minutes add 50 ul of stop solution to each well. The plates were read on a Multiscan FC microplate reader (Thermo Scientific) at […]. The EC50 values were show in table below.
# Mouse Gremlin-His (R&D) [2] = target: T1, Mouse Gremlin-His (R&D); assay: ELISA, coated mouse gremlin (R&D)
# Description: as §1
# HGREM1-His (ACRO) [3] = target: T3, HGREM1-His (ACRO); assay: blocking ELISA, Human Gremlin-1 binding to BMP7; column OD450
# Description: In addition, the ability of serial dilutions of antibodies provided herein to block Gremlin binding to human BMP2/4/7 was also examined via ELISA. Plates were coated with recombinant human BMP2/4/7 (0.5 μg/ml) overnight and then serial dilutions of antibodies were incubated with 1 μg/ml of human Gremlin-his modified for 1 h at RT before this complex was added to coated plates and allowed to incubate for an additional hour at RT. The plates were then washed and added with anti-his HRP (GenScript). Plates were then developed with a TMB solution and stopped by adding stop solution. The plates were read on a plate reader at 450 nm. […] The chimeric anti-gremlin 1 antibodies (69H5-chi) and chimeric anti-gremlin 1 antibodies (22F1-chi) also can inhibit the binding of gremlin to BMP2 and BMP4 (see, FIG. 3E and FIG. 3F). The chimeric anti-gremlin 1 antibodies (56C11-chi) can inhibit the binding of gremlin to BMP2 (see, FIG. 3E).
# HGREM1-His (ACRO) [4] = target: T3, HGREM1-His (ACRO); assay: ELISA on coated Gremlin-his; unit from the axis Ab(nM)
# Description: Clear polystyrene plates (BEAVER) were coated with 100 μl/well of a 0.5 μg/ml human gremlin (ACRO) and DAN (Sinobiological) in high pH coating buffer overnight at 4° C. Then the plates were washed once on an automatic plate washer using PBS+0.1% Tween 20 (Sigma). 100 μl of block solution consisting of PBS+1% BSA+1% normal goat serum+0.5% Tween 20 (Sigma) was added to each well and incubated at room temperature for 2 hours. Then 100 ul of antibodies (hybridoma or chimeric antibody 36F5, chimeric antibody 67G11, chimeric antibody 42B9) in antibody dilution buffer containing PBS+1% BSA+1% normal goat serum+0.01% Tween 20 starting from 2 μg/ml (13.33 nM) and then 4 fold serial dilution were added to each well of the plate and incubated for 1 hours at room temperature. Afterward the plates were washed three times with 200 ul of PBS+0.1% Tween20 followed by adding 100 μl/well 1:10000 Goat anti mouse IgG-HRP or mouse anti-human IgG-HRP (abcam), and incubate for 1 hour at room temperature. They were then washed 3× with PBS+0.1% Tween20. Finally, 100 μl/well of TMB (InnoReagents) was added to each well and after 2 minutes add 50 ul of stop solution to each well. The plates were read on a Multiscan FC microplate reader (Thermo Scientific) at 450 nm.
Binder,binding result (Mouse Gremlin-His (R&D) [1]),EC50 (XM5-Fc),EC50 (Mouse Gremlin-His (R&D) [2]),IC50 (HGREM1-His (ACRO) [3]),EC50 (HGREM1-His (ACRO) [4])
"14E3 (antibody, V domains shown, mouse hybridoma antibody; also called hybridoma 14E3; anti-gremlin1 antibody 14E3) VH: QIQLVQSGPELKKPGETVKISCKTSGSTFTTYGMAWMKQAPGKGLTWMGWINTLSGEPTYADDFKGRFAFSLKTSANTAYLQINNLKNEDAATYFCAREPMDYWGQGTSVIVSS VL: not shown",no binding,–,–,–,–
"36F5 (antibody, V domains shown, mouse hybridoma antibody; also called hybridoma 36F5) VH: QVQLQQSGAELARPGASVKLSCKASGYSFTSSGIGWVKQRSGQGLEWIGEIYPRSGNTYNNEKFKGKATLTADKSSSTVYMELRSLTSEDSAVYFCVREAYSHHYYAMDYWGQGTSVTVFS VL: DVLMTQTPLSLPVSLGGQASISCRSSQSLLHSNGNTYLEWYLQKPGQSPKLLIYKVSNRFSGVPDRLSGSGSGTDFTLKISRVEAEDLGVYYCFQGSHVPFTFGSGTKLEIN",–,6.92 ng/mL,4.56 ng/mL,684 ng/mL,0.0309 nM
